Source: US20120009162A1 (published 2012)

Molecular target: T1, Aurora-A kinase (Aur-A) peptide on HLA-A*02:01 (human)
T1 peptide: YLILEYAPL
Assay: multimer staining

binding result: recognises
B1: TCR of the Aur-A-specific CTL clone AUR-1 (SEQ ID NOs 1 and 2) (TCR, V domains shown)
Valpha: AQSVAQPEDQVNVAEGNPLTVKCTYSVSGNPYLFWYVQYPNRGLQFLLKYITGDNLVKGSYGFEAEFNKSQTSFHLKKPSALVSDSALYFCAVRDSNSNDYKLSFGAGTTVTVRA
Vbeta: DAGITQSPRHKVTETGTPVTLRCHQTENHRYMYWYRQDPGHGLRLIHYSYGVKDTDKGEVSDGYSVSRSKTEDFLLTLESATSSQTSVYFCAISESSFAQPMNTEAFFGQGTRLTVV
